Where two headings read alike, the source gives them in different places.
Assays:
[1] = molecular target: T1, streptavidin (UniProt P22629 25-183); assay: EMSA
[2] = molecular target: T1, streptavidin; assay: EMSA; remark: listed apart in the source

T1 sequence (P22629 25-183): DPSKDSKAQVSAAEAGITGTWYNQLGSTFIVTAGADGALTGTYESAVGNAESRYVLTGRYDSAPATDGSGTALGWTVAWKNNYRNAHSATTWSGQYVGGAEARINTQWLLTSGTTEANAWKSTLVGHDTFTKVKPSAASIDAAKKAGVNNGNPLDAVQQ

Row | Binder | binding result [1] | binding result [2]
1 | B-siRNA (anti-lamin A/C) (dsRNA, 5'-biotin on sense strand) RNA 1: GGAACUGGACUUCCAGAAGAACAUCUA RNA 2: UAGAUGUUCUUCUGGAAGUCCAGUUCC | binds | –
2 | BSS-siRNA (anti-lamin A/C) (dsRNA, 5'-biotin via C6 S-S disulfide linker on sense strand) RNA 1: GGAACUGGACUUCCAGAAGAACAUCUA RNA 2: UAGAUGUUCUUCUGGAAGUCCAGUUCC | – | binds

From publication PMC1474074
